We go through three variants from article PMC4920195, “Non-Smc element 5 (Nse5) of the Smc5/6 complex interacts with SUMO pathway components” (Biology Open, 2016).

The labels stand for the following.
B1: Nse5-LexA (wild type) [S. cerevisiae] / Smt3-AD [S. cerevisiae] (parent complex)
chain 1: MDGALINSVLYVSPRNGAHYFVELTEKHLLAFEMLNSMCLLENYDHVLLFLECQFGKSHNLAVIPFDIILVLFTLSTLSEYYKEPILRANDPYNTSRETLSRRALKLLQKYLAILKEFDSEQYNLYDLELLRCQFFLAIDTLTPKKQKWGFDRFRRTKSESGVTYRQNASVDPELDQAKTFKNPYRSYISCLEQRNTILGNRLLNLKLNEPGEFINMILWTLSNSLQESTPLFLSSHEIWMPLLEILIDLFSCRQDYFIQHEVAQNVSKSLFVQRLSESPLAVFFESLNTRNFANRFSEYVFLNCDYKLPSDNYATPVHPVYNGENTIVDTYIPTIKCSPLYKSQKSLALRRKLIGSCFKLLLRVPDGHRLITPRIVADDVIQGISRTLASFNDILQFKKFFMTENLSQESYFIPLLAEGTLSEILKDTQECVVILTLVENLSDGVSFCNEVIGLVKSKCFAFTEQCSQASYEEAVLNIEKCDVCLLVLLRYLLHLIGTEAILDAKEQLEMLHAIEKNDSGRRQWAKALNLGNDPPLLYPIVSQMFGVHDKSVIIE
chain 2: MSDSEVNQEAKPEVKPEVKPETHINLKVSDGSSEIFFKIKKTTPLRRLMEAFAKRQGKEMDSLRFLYDGIRIQADQTPEDLDMEDNDIIEAHREQIGGATY

Variants of B1 are the subject of the test. In words: yeast two-hybrid (β-galactosidase); gal (induced) bar; vector bait control 7.3; parent: 1.95e+03.
On to chain 1 L247A, for which the response is 7.4 β-galactosidase activity units.

Take chain 1 L70A, chain 1 L247A: the response is 6.6 β-galactosidase activity units.

For chain 1 L70A, the response was 7.8 β-galactosidase activity units.
